Results taken from US20200362300A1 (OSE IMMUNOTHERAPEUTICS, published 2020).

T1: CD127-Fc (Sino Biological) (UniProt P16871 21-239, limits assumed)
T1 construct: whole entry named; Immobilised by amine coupling on a CM5 chip; also called CD127 protein; not shown: Fc part of the bought fusion; not described
T1 sequence (looked up): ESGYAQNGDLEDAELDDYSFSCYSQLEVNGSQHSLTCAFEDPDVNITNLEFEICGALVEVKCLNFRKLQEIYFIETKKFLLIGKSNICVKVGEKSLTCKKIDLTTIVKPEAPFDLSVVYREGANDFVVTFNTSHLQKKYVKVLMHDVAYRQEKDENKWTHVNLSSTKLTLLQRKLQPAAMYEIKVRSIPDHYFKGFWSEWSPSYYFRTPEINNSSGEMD


Assays:
[1] = biological target: human CD127 on human blood T cells (human) (UniProt P16871); test: flow cytometry on CD3+ cells of three human donors
[2] = biological target: CD127-Fc (Sino Biological) (UniProt P16871); test: SPR (Biacore), single cycle kinetics, CD127-Fc immobilised on CM5 chip, bivalent model
[3] = biological target: T1, CD127-Fc (Sino Biological); test: as above
Protocol: CD127-Fc was immobilized by amine coupling on a CM5 chip. The carboxylic groups were esterified by injection of an NHS/EDC mix for 7 min. The CD127-Fc proteins diluted to 20 μg/ml in Na acetate buffer pH 4.6 were injected until an SPR signal of 500 RU was obtained. Free reactive sites were inactivated by injection of 1 M ethanolamine pH8.5 for 10 min.
Antibodies were analyzed in Single Cycle Kinetics (SCK) on CD127 to determine kinetic and affinity parameters. The surface functionalized with CD127-Fc was regenerated between each cycle by injection of a 4 M MgCl 2 solution for 30 seconds.

Row | Molecule | mean fluorescence intensity [1] | Kd [2] | Kd [3]
1 | eBIORDR5 (CD127 Monoclonal Antibody, eBioscience from Invitrogen/Thermo Fisher Scientific catalog # 14-1278-82) | 4140 MFI | 0.0683 nM | 
2 | Effi3-VH3VL3 (antibody, V domains shown, also called Effi3-VH3L3; Effi3 clone VH3VL3) VH: AVQLVESGGGLVQPGGSLKITCAASGFTFTNAAMYWVRQAPGKGLEWVARIRTKANNYATYYADSVKGRFTISRDDSKSTVYLQMDSVKTEDTATYYCIVVVLTTTRDYFDYWGQGVLVTVSS VL: DIVLTQSPSSLPVTPGEPASISCRSSQSLLTVKGITSLYWFLQKPGQSPKLLIYRMSNRDSGVPDRFSGSGSETDFTLKISRVEAEDVGTYYCAQFLEYPHTFGAGTKLELKR |  |  | 1.62 nM
